Data published in patent publication US8465735B2, “Variant form of urate oxidase and use thereof” (Savient Pharmaceuticals, Inc., priority 2005, dated 2013).

Tested on: O=c1[nH]c(=O)c2[nH]c(=O)[nH]c2[nH]1
Experiment: purified protein, by the assay type
Conditions: other: sodium borate buffer, pH 9.2, 25.0 °C
Experimental: Activity of uricase was measured by a UV method. […] Uricase potency is expressed in activity units per mg protein (U/mg).
The absorbance change with time (ΔA292 per minute) was derived from the linear portion of the curve.
The specific activity (potency) of uricase was calculated by dividing the activity in U/ml with protein concentration in mg/ml.

A. flavus (Aspergillus flavus) uricase, native (Merck) (Aspergillus flavus)
Km: 23.54 µM
kcat: 11.2 s⁻¹
